Target: T1, Pwl2 without the signal peptide (residues 22-145) (Magnaporthe oryzae, UniProt G5EI71 22-145)
T1 sequence: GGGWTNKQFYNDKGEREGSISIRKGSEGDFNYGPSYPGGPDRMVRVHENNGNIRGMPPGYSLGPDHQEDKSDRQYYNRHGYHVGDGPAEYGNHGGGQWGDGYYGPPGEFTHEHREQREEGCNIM
Assay: ITC

B1: HMA domain of OsHIPP43 (residues 26-101) (domain or fragment)
chain: RPLQTVNIKVKMDCEGCERRVKNAVKSMRGVTSVAVNPKQSRCTVTGYVEASKVLERVKSTGKAAEMWPYVPYTMT
Kd: 191 nM | dH: -67.6 kcal/mol

Reference: doi:10.1101/2024.01.20.576400 (bioRxiv, 2024)
